Consider one substance from patent US5580712.

This assay deals with FLAG epitope Trypsin site N-terminally tagged 9 repeat GG biopolymer (SEQ ID NO:20).

In the case of Trypsin (type XI DPCC treated) (enzyme), the completeness of proteolytic cleavage, from relative mobility on SDS gels came to 100%.
